The test addresses c-Met (human, UniProt P08581 25-1390). In words: cell-based or functional assay.

Sequence of c-Met (P08581 25-1390): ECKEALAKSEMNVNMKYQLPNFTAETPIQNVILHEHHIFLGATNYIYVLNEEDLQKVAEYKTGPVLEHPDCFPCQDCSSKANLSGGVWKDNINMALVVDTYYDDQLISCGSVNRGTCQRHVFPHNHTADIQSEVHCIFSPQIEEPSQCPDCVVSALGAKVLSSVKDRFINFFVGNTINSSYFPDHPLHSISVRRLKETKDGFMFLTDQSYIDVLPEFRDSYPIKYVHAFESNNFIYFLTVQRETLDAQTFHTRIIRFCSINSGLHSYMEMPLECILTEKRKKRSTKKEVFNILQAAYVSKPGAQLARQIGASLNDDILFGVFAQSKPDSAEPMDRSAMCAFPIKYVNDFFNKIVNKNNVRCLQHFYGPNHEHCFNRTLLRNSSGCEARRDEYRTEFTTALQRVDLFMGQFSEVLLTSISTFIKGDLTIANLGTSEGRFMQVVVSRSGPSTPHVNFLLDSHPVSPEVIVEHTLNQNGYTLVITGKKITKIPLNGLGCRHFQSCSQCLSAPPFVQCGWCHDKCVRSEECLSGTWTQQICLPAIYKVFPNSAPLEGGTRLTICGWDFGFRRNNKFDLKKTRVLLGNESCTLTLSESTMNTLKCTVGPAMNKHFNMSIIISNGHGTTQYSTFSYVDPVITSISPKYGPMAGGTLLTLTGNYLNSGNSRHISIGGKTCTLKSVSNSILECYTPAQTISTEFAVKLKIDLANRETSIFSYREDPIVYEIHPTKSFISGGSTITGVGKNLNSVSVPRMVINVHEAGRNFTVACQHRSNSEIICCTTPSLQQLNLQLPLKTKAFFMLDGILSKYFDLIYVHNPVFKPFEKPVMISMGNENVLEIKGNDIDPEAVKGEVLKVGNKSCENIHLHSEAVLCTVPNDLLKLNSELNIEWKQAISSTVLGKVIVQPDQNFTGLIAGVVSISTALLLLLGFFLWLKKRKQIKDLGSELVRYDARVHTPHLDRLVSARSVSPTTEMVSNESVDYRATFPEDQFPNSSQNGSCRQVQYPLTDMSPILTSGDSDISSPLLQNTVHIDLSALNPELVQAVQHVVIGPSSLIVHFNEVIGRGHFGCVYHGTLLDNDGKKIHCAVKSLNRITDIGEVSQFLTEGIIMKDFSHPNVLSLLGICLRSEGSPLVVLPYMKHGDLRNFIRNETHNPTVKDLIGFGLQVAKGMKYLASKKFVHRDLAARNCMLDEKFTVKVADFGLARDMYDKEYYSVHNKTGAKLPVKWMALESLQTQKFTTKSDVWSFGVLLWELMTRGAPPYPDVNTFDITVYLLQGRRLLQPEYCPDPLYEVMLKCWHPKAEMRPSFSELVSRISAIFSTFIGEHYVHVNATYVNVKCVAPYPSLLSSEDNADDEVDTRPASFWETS

B1: ADC-1 (AbA conjugated to linker drug LD1, structural formula VIII) (antibody, IgG1, V domains shown)
VH: QVQLVQSGAEVKKPGASVKVSCKASGYIFTAYTMHWVRQAPGQGLEWMGWIKPNNGLANYAQKFQGRVTMTRDTSISTAYMELSRLRSDDTAVYYCARSEITTEFDYWGQGTLVTVSS
VL: DIVMTQSPDSLAVSLGERATINCKSSESVDSYANSFLHWYQQKPGQPPKLLIYRASTRESGVPDRFSGSGSGTDFTLTISSLQAEDVAVYYCQQSKEDPLTFGGGTKVEIKR
modifications: TOP1i linker drug LD1 (structural formula V) linked via sulfhydryl groups of reduced cysteine residues; positions not given
Consider B1, for which the “Cytotoxicity IC50 (nM), Calu-3 cells” value stood at 20 nM; the “Cytotoxicity IC50 (nM), HCC827 cells” value was 0.85 nM; the “Cytotoxicity IC50 (nM), HEK-293 cells (not different from control)” value was more than 60 nM; the “Cytotoxicity IC50 (nM), MIA PaCa-2 cells (not different from control)” value was more than 60 nM. For the same molecule, the “Cytotoxicity IC50 (nM), NCI-H441 cells” value is 0.25 nM; the “Cytotoxicity IC50 (nM), NCI-H441 cells (second row so labelled)” value was determined as 0.3 nM; the “Cytotoxicity IC50 (nM), NCI-H1573 cells (estimated due to curve-fitting issues)” value was approximately 1 nM; the “Cytotoxicity IC50 (nM), SNU-5 cells” value is 0.19 nM.

B2: ADC-3 (AbA conjugated to linker drug LD3, structural formula X) (antibody, IgG1, V domains shown)
VH: B1 VH
VL: B1 VL
modifications: TOP1i linker drug LD3 (structural formula VII, maleimide, hydrolyzed) linked via sulfhydryl groups of reduced cysteine residues; positions not given
For B2, the “Cytotoxicity IC50 (nM), HCC827 cells” value was found to be 0.5 nM; the “Cytotoxicity IC50 (nM), Hs 746T cells” value came to 0.05 nM; the “Cytotoxicity IC50 (nM), MIA PaCa-2 cells (not different from control)” value is more than 60 nM; the “Cytotoxicity IC50 (nM), NCI-H820 cells” value stood at 0.06 nM. In addition, the “Cytotoxicity IC50 (nM), NCI-H1573 cells” value was 1.1 nM.

B3: ADC-2 (AbA conjugated to linker drug LD2, structural formula IX) (antibody, IgG1, V domains shown)
VH: B1 VH
VL: B1 VL
modifications: TOP1i linker drug LD2 (structural formula VI, maleimide, hydrolyzed) linked via sulfhydryl groups of reduced cysteine residues; positions not given
Regarding B3, the “Cytotoxicity IC50 (nM), HCC827 cells” value came to 0.9 nM; the “Cytotoxicity IC50 (nM), MIA PaCa-2 cells (not different from control)” value is more than 60 nM; the “Cytotoxicity IC50 (nM), NCI-H441 cells (second row so labelled)” value worked out at 0.25 nM; the “Cytotoxicity IC50 (nM), NCI-H820 cells” value turned out to be 0.16 nM. Also, the “Cytotoxicity IC50 (nM), NCI-H1573 cells (estimated due to curve-fitting issues)” value is approximately 1 nM.

The values are drawn from US20260022128A1 (AbbVie / Abbott, published 2026).
